Experimental data as given in paper PMC3084036 (Journal of molecular biology, 2011).
Each block holds one molecule with its values, some of them ahead of it.

Columns and labels:
[1] = target: chicken VE-cadherin EC1-2, wild type (chicken); experiment: AUC
[2] = target: human VE-cadherin EC1-5 ectodomain, wild type, glycosylated (human); experiment: AUC
[3] = target: mouse cadherin-10 EC1-2, wild type (mouse); experiment: AUC
[4] = target: mouse cadherin-9 EC1-2, wild type (mouse); experiment: AUC
[5] = target: human VE-cadherin EC3-4, wild type, bacterially produced (human); experiment: SEC
[6] = target: human VE-cadherin EC3-4, wild type, bacterially produced (human); experiment: AUC
[7] = target: mouse VE-cadherin EC1-2, wild type (mouse); experiment: AUC
[8] = target: human VE-cadherin EC1-2, wild type (human); experiment: AUC
AUC = target: the molecule itself; experiment: AUC

Molecule: mouse cadherin-10 EC1-2, wild type (domain or fragment)
Kd [3]: 42.2 µM

Molecule: human VE-cadherin EC1-2, wild type (domain or fragment)
Kd [8]: 4.38 µM

B1: mouse cadherin-11 EC1-2, wild type (domain or fragment)
chain: GWVWNQFFVIEEYTGPDPVLVGRLHSDIDSGDGNIKYILSGEGAGTIFVIDDKSGNIHATKTLDREERAQYTLMAQAVDRDTNRPLEPPSEFIVKVQDINDNPPEFLHEIYHANVPERSNVGTSVIQVTASDADDPTYGNSAKLVYSILEGQPYFSVEAQTGIIRTALPNMDREAKEEYHVVIQAKDMGGHMGGLSGTTKVTITLTD
Kd (AUC): 33.8 ± 0.2 µM

B2: chicken cadherin-6b EC1-2, wild type (domain or fragment)
chain: SWMWNQFFLLEEYTGTDYQYVGKLHSDQDKGDGSLKYILSGDGAGDLFIINENTGDIQATKRLDREEKPVYILRAQAINRRTGRPVEPESEFIIKIHDINDNEPMFTKDVYNASIPEMSDVGTFVVQVTATDADDPTYGNSAKVVYSILQGQPYFSVESETGIIKTALLNMDRENREQYQVVIQAKDMGGQMGGLSGTTTVNITLTDVNDNPPRF
Kd (AUC): 9.2 ± 0.6 µM

B3: mouse cadherin-8 EC1-3, wild type (domain or fragment)
chain: GWVWNQMFVLEEFSGPEPILVGRLHTDLDPGSKKIKYILSGDGAGTIFQINDITGDIHAIKRLDREEKAEYTLTAQAVDFETNKPLEPPSEFIIKVQDINDNAPEFLNGPYHATVPEMSILGTSVTNVTATDADDPVYGNSAKLVYSILEGQPYFSIEPETAIIKTALPNMDREAKEEYLVVIQAKDMGGHSGGLSGTTTLTVTLTDVNDNPPKFAQSLYHFSVPEDVVLGTAIGRVKANDQDIGENAQSSYDIIDGDGTALFEITSDAQAQDGVIRLRKPLDFETKKSYTLKVEAANIHIDPRFSSRGPFKDTATVKIVVEDADEPPVF
Kd (AUC): 15 ± 0.4 µM

B4: chicken VE-cadherin EC1-5 ectodomain, wild type, glycosylated (domain or fragment)
chain: DWIWNRMHIREEIDSPLPHHVGKLTSSVGNKNAMYIIEGESANTIFKVQGYDGDIYAFERLDREKKAEYELTAHIIDRRNNRSLEPPSKFIIKVSDINDNAPIFVQKIFNGSVPEMSRLGTSVTKVTAEDADDPTVAGHATVTYQIIKGNEYFTVDDSGVIFTARADLDRESQSAYEIIVKAKDALGLTGESSTATVIIRLTDINDNFPVFKHPSFHFRVPENISVGGEVGRVKVEDIDEPQHRNTKYSFVRGDYRDTFEIIANPFTNEGIIRPKKPLDFEKVAEYRFDIEATDHNVNPAYYKPGGSRSISTITIEVTDVDEPPVFTKLSYEFKVRENDPEIKTLGSVWAHDPDAAKRKIRFARRRASPNGDYVRVSDSGIIQLPKPLDREFSSLYNITVAAQEILEDGRLSDRESHAQVHVIVTDENDNAPELVYPEEPRVCENAAPGKVIIRISATDKDEISPGGFFTYSLTTEDSNFSLTENPDNTANITVKDGQFNRELAKIHYLPVIISDNGNPELSSTNTLVISVCKCNEKGDFTFCEE
modifications: glycosylated (N-linked and O-linked sugar)
Kd (AUC): 1.14 ± 0.04 µM

Continued, values first:

Kd [1]: 1.63 µM
Molecule: chicken VE-cadherin EC1-2, wild type (domain or fragment)

Kd [2]: 1.03 µM
Molecule: human VE-cadherin EC1-5 ectodomain, wild type, glycosylated (domain or fragment)

Kd [4]: 17 µM
Molecule: mouse cadherin-9 EC1-2, wild type (domain or fragment)

stoichiometry N [5]: 2
Kd [6]: 1.93 µM
Molecule: human VE-cadherin EC3-4, wild type, bacterially produced (domain or fragment)

Kd [7]: 2.22 µM
Molecule: mouse VE-cadherin EC1-2, wild type (domain or fragment)
